Assay results reported in PMC1669725.

Molecular target: Sp1 zinc-finger DNA-binding domain (truncated Sp1) (UniProt P08047 619-774)
Assay: fluorescence correlation spectroscopy

Sequence of Sp1 zinc-finger DNA-binding domain (truncated Sp1) (P08047 619-774): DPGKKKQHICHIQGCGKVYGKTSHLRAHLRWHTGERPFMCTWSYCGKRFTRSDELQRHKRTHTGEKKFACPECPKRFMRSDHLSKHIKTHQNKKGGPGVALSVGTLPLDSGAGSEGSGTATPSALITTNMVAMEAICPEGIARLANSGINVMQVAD

B1: HIV LTR Sp1 site 23 bp (dsDNA)
DNA 1: ACTTTCCAGGGAGGCGTGGCCTG
DNA 2: CAGGCCACGCCTCCCTGGAAAGT
- Kd: 32 ± 2 nM
